The values that follow are results of earlier work, collected in publication PMC3937454.

Data set [1] has as its target Lys143 (UniProt position 161, ASHLRKLRKRL). Conditions: not stated (lipid-free or lipid-bound state not specified for the quoted values).
Data set [2] deals with Lys146 (UniProt position 164, LRKLRKRLLRD). Particulars: not stated (lipid-free or lipid-bound state not specified for the quoted values).

Regarding “Apolipoprotein E3 (apoE3) (Homo sapiens)”, the pKa is recorded as 9.5 in data set [1] and 9.2 in data set [2].

The pKa is the negative logarithm of the acid dissociation constant.
